PMC3971956

What was measured:
Assay in all cases: SAXS
[1] = biological target: PARP-1 full-length (human, UniProt P09874 1-1014)
[2] = biological target: AB (human, UniProt P09874 1-232)
[3] = biological target: ABC (human, UniProt P09874 1-373)

Measured: binding result

Sequence of AB (P09874 1-232): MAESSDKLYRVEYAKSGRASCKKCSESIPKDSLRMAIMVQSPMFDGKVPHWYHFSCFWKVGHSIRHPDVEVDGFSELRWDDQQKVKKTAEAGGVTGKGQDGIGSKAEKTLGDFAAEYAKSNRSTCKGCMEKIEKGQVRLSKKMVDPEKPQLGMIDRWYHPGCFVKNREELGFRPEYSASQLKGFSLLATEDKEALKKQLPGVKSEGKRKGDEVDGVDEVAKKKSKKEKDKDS
Sequence of PARP-1 full-length (P09874 whole entry): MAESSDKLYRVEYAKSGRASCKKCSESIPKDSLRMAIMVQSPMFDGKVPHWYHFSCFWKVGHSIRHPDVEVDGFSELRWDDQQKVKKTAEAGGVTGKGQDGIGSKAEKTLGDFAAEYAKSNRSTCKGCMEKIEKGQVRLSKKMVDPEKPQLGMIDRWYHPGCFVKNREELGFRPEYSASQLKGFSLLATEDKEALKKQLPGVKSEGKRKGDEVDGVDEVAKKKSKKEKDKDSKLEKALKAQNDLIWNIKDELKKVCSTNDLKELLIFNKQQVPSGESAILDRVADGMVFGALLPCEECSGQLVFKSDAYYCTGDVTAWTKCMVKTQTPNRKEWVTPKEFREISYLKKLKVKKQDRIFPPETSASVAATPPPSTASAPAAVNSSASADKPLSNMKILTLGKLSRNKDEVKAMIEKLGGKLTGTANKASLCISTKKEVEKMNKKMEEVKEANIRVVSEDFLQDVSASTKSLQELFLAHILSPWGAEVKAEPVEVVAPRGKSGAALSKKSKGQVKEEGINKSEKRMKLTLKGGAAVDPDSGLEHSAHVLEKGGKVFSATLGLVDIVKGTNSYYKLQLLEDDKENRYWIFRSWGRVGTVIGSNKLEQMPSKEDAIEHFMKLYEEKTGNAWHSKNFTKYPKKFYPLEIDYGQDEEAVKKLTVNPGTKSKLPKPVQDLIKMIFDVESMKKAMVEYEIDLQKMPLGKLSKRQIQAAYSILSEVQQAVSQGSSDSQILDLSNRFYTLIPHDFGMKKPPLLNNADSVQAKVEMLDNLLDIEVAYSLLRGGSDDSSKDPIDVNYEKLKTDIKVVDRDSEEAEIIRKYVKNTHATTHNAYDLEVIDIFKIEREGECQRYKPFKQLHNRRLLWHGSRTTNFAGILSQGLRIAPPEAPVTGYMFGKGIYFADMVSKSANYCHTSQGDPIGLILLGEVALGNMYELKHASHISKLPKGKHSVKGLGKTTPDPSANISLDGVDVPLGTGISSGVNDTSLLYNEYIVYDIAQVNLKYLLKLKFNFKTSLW
Sequence of ABC (P09874 1-373): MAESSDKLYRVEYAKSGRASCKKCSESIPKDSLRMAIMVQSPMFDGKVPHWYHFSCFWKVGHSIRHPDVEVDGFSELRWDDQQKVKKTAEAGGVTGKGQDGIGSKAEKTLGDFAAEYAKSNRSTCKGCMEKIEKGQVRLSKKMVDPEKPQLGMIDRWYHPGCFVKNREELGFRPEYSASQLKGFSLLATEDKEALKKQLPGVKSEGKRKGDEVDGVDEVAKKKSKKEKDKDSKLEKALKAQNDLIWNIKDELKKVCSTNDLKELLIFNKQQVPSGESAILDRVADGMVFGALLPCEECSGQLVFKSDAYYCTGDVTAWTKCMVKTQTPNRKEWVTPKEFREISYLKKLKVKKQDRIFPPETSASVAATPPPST

B1: 8-mer DNA (dsDNA)
DNA 1: GGAATTCC
DNA 2: GGAATTCC
binds: all assays above
